Starred links: 1 amine or outer side, 2 acyl side, 3 side chain; linkers in the order of their positions; H or OH if unused. Non-standard residues stand in square brackets, D forms with d. rCha = cyclohexylalanine with ψ(CH2NH) reduced amide bond, C1CCC(C[C@@H](C[*:2])N[*:1])CC1; rHis = histidine with ψ(CH2NH) reduced amide bond, c1nc(C[C@@H](C[*:2])N[*:1])c[nH]1; rLys = lysine with ψ(CH2NH) reduced amide bond, C(CC[C@@H](C[*:2])N[*:1])CN[*:3]; DrSer = D-serine with ψ(CH2NH) reduced amide bond, C(O[*:3])[C@H](C[*:2])N[*:1]; rSer = serine with ψ(CH2NH) reduced amide bond, C(O[*:3])[C@@H](C[*:2])N[*:1]; dBip = N[C@H](Cc1ccc(-c2ccccc2)cc1)C(=O)O; Oic = O=C(O)[C@@H]1C[C@@H]2CCCC[C@@H]2N1; Phe(4-Cl) = N[C@@H](Cc1ccc(Cl)cc1)C(=O)O; dPhe(4-Cl) = N[C@H](Cc1ccc(Cl)cc1)C(=O)O; Phe(4-I) = N[C@@H](Cc1ccc(I)cc1)C(=O)O; 2Nal = N[C@@H](Cc1ccc2ccccc2c1)C(=O)O; d1Nal = N[C@H](Cc1cccc2ccccc12)C(=O)O; NMeR = CN[C@@H](CCCNC(=N)N)C(=O)O; hArg = N=C(N)NCCCC[C@H](N)C(=O)O; Cha = N[C@@H](CC1CCCCC1)C(=O)O; NMeL = CN[C@@H](CC(C)C)C(=O)O; Nle = CCCC[C@H](N)C(=O)O; Orn = NCCC[C@H](N)C(=O)O
T1: human APJ receptor (human, UniProt P35414 1-380)
T1 sequence (looked up): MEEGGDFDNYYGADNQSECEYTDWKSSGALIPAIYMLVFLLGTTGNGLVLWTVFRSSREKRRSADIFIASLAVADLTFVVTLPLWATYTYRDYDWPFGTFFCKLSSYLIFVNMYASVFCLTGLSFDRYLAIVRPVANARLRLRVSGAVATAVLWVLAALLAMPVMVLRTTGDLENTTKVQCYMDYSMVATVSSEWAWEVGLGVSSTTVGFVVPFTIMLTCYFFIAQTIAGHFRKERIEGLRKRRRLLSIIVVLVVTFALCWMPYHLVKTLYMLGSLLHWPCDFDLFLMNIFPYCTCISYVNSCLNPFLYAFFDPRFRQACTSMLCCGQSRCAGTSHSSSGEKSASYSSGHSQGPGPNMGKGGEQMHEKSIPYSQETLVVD

T2: rat APJ receptor (rat, UniProt Q9JHG3 1-377)
T2 sequence (looked up): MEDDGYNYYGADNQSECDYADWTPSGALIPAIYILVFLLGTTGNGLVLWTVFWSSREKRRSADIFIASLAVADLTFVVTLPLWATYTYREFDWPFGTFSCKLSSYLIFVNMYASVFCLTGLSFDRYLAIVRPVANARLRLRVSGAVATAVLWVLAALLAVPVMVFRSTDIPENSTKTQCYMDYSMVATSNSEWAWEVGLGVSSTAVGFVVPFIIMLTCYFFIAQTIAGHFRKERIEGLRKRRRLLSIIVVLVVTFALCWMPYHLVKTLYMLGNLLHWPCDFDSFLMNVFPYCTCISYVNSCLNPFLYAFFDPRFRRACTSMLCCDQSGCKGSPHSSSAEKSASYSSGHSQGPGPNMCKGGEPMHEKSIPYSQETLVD


Experiments:
human APJ receptor = molecular target: T1, human APJ receptor; assay: cell-based or functional assay
rat APJ receptor = molecular target: T2, rat APJ receptor; assay: cell-based or functional assay

EC50 Human APJ Receptor (human APJ receptor) | EC50 Rat APJ Receptor (rat APJ receptor) | Binder
30.1 nM | 312 nM | Ac-Q[dR]P[NMeR][Cha]SHKG[Oic][Nle][d1Nal]-OH (SMILES CCCC[C@H](NC(=O)[C@@H]1C[C@@H]2CCCC[C@@H]2N1C(=O)CNC(=O)[C@H](CCCCN)NC(=O)[C@H](Cc1c[nH]cn1)NC(=O)[C@H](CO)NC(=O)[C@H](CC1CCCCC1)NC(=O)[C@H](CCCNC(=N)N)N(C)C(=O)[C@@H]1CCCN1C(=O)[C@@H](CCCNC(=N)N)NC(=O)[C@H](CCC(N)=O)NC(C)=O)C(=O)N[C@H](Cc1cccc2ccccc12)C(=O)O) [apelin polypeptide SEQ ID NO: 54]
0.151 nM | 0.817 nM | Ac-[Orn]F[hArg][hArg]Q[hArg]P[hArg][Cha]SH[rLys]G[Oic][Nle]P[Phe(4-Cl)]-OH (also: reduced amide bond (CH2NH) at residue 12) [apelin polypeptide SEQ ID NO: 41]
1.43 nM | 1.68 nM | Ac-[dR]Q[hArg]P[dR][NMeL]SHKG[Oic][Phe(4-I)]P[dBip]-OH [apelin polypeptide SEQ ID NO: 50]
0.0449 nM | 0.247 nM | Ac-[Orn]F[hArg][hArg]Q[hArg]P[hArg][rCha]SHKG[Oic][Nle]P[Phe(4-Cl)]-OH (also: reduced amide bond (CH2NH) at residue 9) [apelin polypeptide SEQ ID NO: 42]
0.389 nM | 1.04 nM | Ac-[Orn]F[hArg][hArg]QRP[hArg][Cha]SHKGP[Phe(4-I)]P[dBip]-OH (SMILES CC(=O)N[C@@H](CCCN)C(=O)N[C@@H](Cc1ccccc1)C(=O)N[C@@H](CCCCNC(=N)N)C(=O)N[C@@H](CCCCNC(=N)N)C(=O)N[C@@H](CCC(N)=O)C(=O)N[C@@H](CCCNC(=N)N)C(=O)N1CCC[C@H]1C(=O)N[C@@H](CCCCNC(=N)N)C(=O)N[C@@H](CC1CCCCC1)C(=O)N[C@@H](CO)C(=O)N[C@@H](Cc1c[nH]cn1)C(=O)N[C@@H](CCCCN)C(=O)NCC(=O)N1CCC[C@H]1C(=O)N[C@@H](Cc1ccc(I)cc1)C(=O)N1CCC[C@H]1C(=O)N[C@H](Cc1ccc(-c2ccccc2)cc1)C(=O)O) [apelin polypeptide SEQ ID NO: 46]
0.234 nM | 1.45 nM | Ac-[Orn]F[hArg][hArg]Q[hArg]P[hArg][Cha]S[rHis]KG[Oic][Nle]P[Phe(4-Cl)]-OH (also: reduced amide bond (CH2NH) at residue 11) [apelin polypeptide SEQ ID NO: 40]
5.18 nM | 5.98 nM | QRPRLSHKGXFPX ({Acetyl-NH}Q[hArg]Pr[NMeLeu]SHKG[Oic][pI-Phe]P[D-Bip]{COOH}) [apelin polypeptide SEQ ID NO: 53]
0.997 nM | 3.79 nM | Ac-[Orn]F[hArg][hArg]Q[hArg]P[hArg][Cha][DrSer]HKG[Oic][Nle]P[Phe(4-Cl)]-OH (also: reduced amide bond at D-Ser10 (DrSer)) [apelin polypeptide SEQ ID NO: 44]
0.37 nM | 1.26 nM | Ac-RQRP[hArg][NMeL]SHKG[Oic][Phe(4-I)]P[dBip]-OH [apelin polypeptide SEQ ID NO: 51]
0.287 nM | 0.486 nM | Ac-[Orn]F[hArg][hArg]QRP[hArg][Cha]SHKGP[Nle][Phe(4-Cl)]-OH (SMILES CCCC[C@H](NC(=O)[C@@H]1CCCN1C(=O)CNC(=O)[C@H](CCCCN)NC(=O)[C@H](Cc1c[nH]cn1)NC(=O)[C@H](CO)NC(=O)[C@H](CC1CCCCC1)NC(=O)[C@H](CCCCNC(=N)N)NC(=O)[C@@H]1CCCN1C(=O)[C@H](CCCNC(=N)N)NC(=O)[C@H](CCC(N)=O)NC(=O)[C@H](CCCCNC(=N)N)NC(=O)[C@H](CCCCNC(=N)N)NC(=O)[C@H](Cc1ccccc1)NC(=O)[C@H](CCCN)NC(C)=O)C(=O)N[C@@H](Cc1ccc(Cl)cc1)C(=O)O) [apelin polypeptide SEQ ID NO: 48]
0.416 nM | 0.63 nM | Ac-[Orn]F[hArg][hArg]QRP[hArg][NMeL]SHKG[Oic][Phe(4-I)]P[dBip]-OH (SMILES CC(=O)N[C@@H](CCCN)C(=O)N[C@@H](Cc1ccccc1)C(=O)N[C@@H](CCCCNC(=N)N)C(=O)N[C@@H](CCCCNC(=N)N)C(=O)N[C@@H](CCC(N)=O)C(=O)N[C@@H](CCCNC(=N)N)C(=O)N1CCC[C@H]1C(=O)N[C@@H](CCCCNC(=N)N)C(=O)N(C)[C@@H](CC(C)C)C(=O)N[C@@H](CO)C(=O)N[C@@H](Cc1c[nH]cn1)C(=O)N[C@@H](CCCCN)C(=O)NCC(=O)N1[C@H](C(=O)N[C@@H](Cc2ccc(I)cc2)C(=O)N2CCC[C@H]2C(=O)N[C@H](Cc2ccc(-c3ccccc3)cc2)C(=O)O)C[C@@H]2CCCC[C@@H]21) [apelin polypeptide SEQ ID NO: 47]
0.159 nM | 0.291 nM | Ac-[Orn]F[hArg][hArg]QRP[hArg][Cha]SHKGP[Nle][2Nal]-OH (SMILES CCCC[C@H](NC(=O)[C@@H]1CCCN1C(=O)CNC(=O)[C@H](CCCCN)NC(=O)[C@H](Cc1c[nH]cn1)NC(=O)[C@H](CO)NC(=O)[C@H](CC1CCCCC1)NC(=O)[C@H](CCCCNC(=N)N)NC(=O)[C@@H]1CCCN1C(=O)[C@H](CCCNC(=N)N)NC(=O)[C@H](CCC(N)=O)NC(=O)[C@H](CCCCNC(=N)N)NC(=O)[C@H](CCCCNC(=N)N)NC(=O)[C@H](Cc1ccccc1)NC(=O)[C@H](CCCN)NC(C)=O)C(=O)N[C@@H](Cc1ccc2ccccc2c1)C(=O)O) [apelin polypeptide SEQ ID NO: 49]
31.6 nM | 145 nM | Ac-[dQ][hArg]P[NMeR][Cha]SHKG[Oic][Nle]P[dPhe(4-Cl)]-OH (SMILES CCCC[C@H](NC(=O)[C@@H]1C[C@@H]2CCCC[C@@H]2N1C(=O)CNC(=O)[C@H](CCCCN)NC(=O)[C@H](Cc1c[nH]cn1)NC(=O)[C@H](CO)NC(=O)[C@H](CC1CCCCC1)NC(=O)[C@H](CCCNC(=N)N)N(C)C(=O)[C@@H]1CCCN1C(=O)[C@H](CCCCNC(=N)N)NC(=O)[C@@H](CCC(N)=O)NC(C)=O)C(=O)N1CCC[C@H]1C(=O)N[C@H](Cc1ccc(Cl)cc1)C(=O)O) [apelin polypeptide SEQ ID NO: 55]
0.393 nM | 1.83 nM | Ac-[Orn]F[hArg][hArg]Q[hArg]P[hArg][Cha][rSer]HKG[Oic][Nle]P[Phe(4-Cl)]-OH (also: reduced amide bond at Ser10 (rSer)) [apelin polypeptide SEQ ID NO: 43]
0.623 nM | 1.14 nM | Ac-[dR]QRP[hArg][NMeL]SHKG[Oic][Phe(4-I)]P[dBip]-OH (SMILES CC(=O)N[C@H](CCCNC(=N)N)C(=O)N[C@@H](CCC(N)=O)C(=O)N[C@@H](CCCNC(=N)N)C(=O)N1CCC[C@H]1C(=O)N[C@@H](CCCCNC(=N)N)C(=O)N(C)[C@@H](CC(C)C)C(=O)N[C@@H](CO)C(=O)N[C@@H](Cc1c[nH]cn1)C(=O)N[C@@H](CCCCN)C(=O)NCC(=O)N1[C@H](C(=O)N[C@@H](Cc2ccc(I)cc2)C(=O)N2CCC[C@H]2C(=O)N[C@H](Cc2ccc(-c3ccccc3)cc2)C(=O)O)C[C@@H]2CCCC[C@@H]21) [apelin polypeptide SEQ ID NO: 52]

— patent publication US10941182 (Amgen, dated 2021)
